How the values were obtained:
[1] = target: CD3 (CD3/TCR complex) on CD4+ and CD8+ T cells of patients (human) (UniProt P07766); assay: flow cytometry of CD4+ T cells, anti-human IgG; Example 4 Cohort B, end of 0.2 mg infusion
[2] = target: CD3 (CD3/TCR complex) on CD4+ and CD8+ T cells of patients (human) (UniProt P07766); assay: flow cytometry of CD4+ T cells, anti-human IgG; Example 4 Cohort A, end of 0.5 mg infusion
[3] = target: CD3 (CD3/TCR complex) on CD4+ and CD8+ T cells of patients (human) (UniProt P07766); assay: flow cytometry of CD4+ T cells, free CD3 sites by biotinylated TRX4; Example 4 Cohort A, 0.5 mg
[4] = target: CD3 (CD3/TCR complex) on CD4+ and CD8+ T cells of patients (human) (UniProt P07766); assay: flow cytometry of CD4+ T cells, free CD3 sites by biotinylated TRX4; Example 4 Cohort B, 0.75 mg
[5] = target: CD3 (CD3/TCR complex) on CD4+ and CD8+ T cells of patients (human) (UniProt P07766); assay: flow cytometry of CD4+ T cells, free CD3 sites by biotinylated TRX4; Example 3 Cohort 1, end of first 0.1 mg infusion
[6] = target: CD3 (CD3/TCR complex) on CD4+ and CD8+ T cells of patients (human) (UniProt P07766); assay: flow cytometry of CD4+ T cells, free CD3 sites by biotinylated TRX4; Example 4 Cohort C, 1.0 mg
[7] = target: CD3 (CD3/TCR complex) on CD4+ and CD8+ T cells of patients (human) (UniProt P07766); assay: flow cytometry of CD4+ T cells, anti-human IgG; Example 4 Cohort A, end of 0.2 mg infusion
[8] = target: CD3 (CD3/TCR complex) on CD4+ and CD8+ T cells of patients (human) (UniProt P07766); assay: flow cytometry of CD4+ T cells, anti-human IgG; Example 4 Cohort A*, end of 0.25 mg infusion
[9] = target: CD3 (CD3/TCR complex) on CD4+ and CD8+ T cells of patients (human) (UniProt P07766); assay: flow cytometry of CD4+ T cells, free CD3 sites by biotinylated TRX4; Example 3 Cohort 3, 0.3 mg

UniProt P07766, sequence (P07766 23-207, chain 1 of 3): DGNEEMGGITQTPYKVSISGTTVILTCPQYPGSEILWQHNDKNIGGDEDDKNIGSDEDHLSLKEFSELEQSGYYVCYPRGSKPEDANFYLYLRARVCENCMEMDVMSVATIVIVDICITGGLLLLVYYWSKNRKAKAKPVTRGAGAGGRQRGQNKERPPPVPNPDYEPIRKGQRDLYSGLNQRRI
UniProt P07766, sequence (chain, as listed by the source, chain 2 of 3): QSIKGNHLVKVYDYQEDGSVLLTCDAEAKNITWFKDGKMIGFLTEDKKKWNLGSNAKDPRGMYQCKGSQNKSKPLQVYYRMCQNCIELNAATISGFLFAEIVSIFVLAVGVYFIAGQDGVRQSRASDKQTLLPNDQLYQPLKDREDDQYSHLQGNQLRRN
UniProt P07766, sequence (chain, as listed by the source, chain 3 of 3): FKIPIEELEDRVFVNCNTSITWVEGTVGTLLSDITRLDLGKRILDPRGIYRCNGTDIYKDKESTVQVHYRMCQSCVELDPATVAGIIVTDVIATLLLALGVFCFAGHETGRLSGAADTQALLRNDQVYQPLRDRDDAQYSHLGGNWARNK

Q: What does the source list for TRX4 antibody?
A: cell-bound TRX4 (MESF of anti-human IgG) [1]: 400000 MESF; cell-bound TRX4 (MESF of anti-human IgG) [2]: 450000 MESF units; percent saturation of CD3 [3]: 95%; percent saturation of CD3 [4]: 95%; percent saturation of CD3 [5]: 37%; percent saturation of CD3 [6]: 97%; cell-bound TRX4 (MESF of anti-human IgG) [7]: 375000 MESF units; cell-bound TRX4 (MESF of anti-human IgG) [8]: 80000 MESF units; percent saturation of CD3 [9]: 70%
